Measured values taken from patent publication US20190008947A1.
Where “and” joins values, the source holds several entries; their conditions need not be identical. Equal values may be shown once. Read-outs that look alike come from different tables or passages of the source.

Experiments:
H-2Kb (mouse), P01901 = molecular target: T1, H-2Kb (mouse), P01901; test: ProImmune REVEAL MHC-peptide binding assay, H-2Kb
T1 chain: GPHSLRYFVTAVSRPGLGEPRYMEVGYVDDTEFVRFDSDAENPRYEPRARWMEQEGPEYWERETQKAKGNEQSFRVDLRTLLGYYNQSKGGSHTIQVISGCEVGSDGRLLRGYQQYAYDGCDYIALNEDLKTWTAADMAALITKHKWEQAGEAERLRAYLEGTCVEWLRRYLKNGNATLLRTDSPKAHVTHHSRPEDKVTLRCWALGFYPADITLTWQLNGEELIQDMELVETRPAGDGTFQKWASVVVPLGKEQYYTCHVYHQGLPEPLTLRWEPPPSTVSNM

[1] = molecular target: HLA-A*02:01 (human), P04439; test: ProImmune REVEAL MHC-peptide binding assay, A*02:01, score against positive control
[2] = molecular target: T2, HLA-A*02:01 (human), P04439; settings: chains peptide; modification not given
T2 chain: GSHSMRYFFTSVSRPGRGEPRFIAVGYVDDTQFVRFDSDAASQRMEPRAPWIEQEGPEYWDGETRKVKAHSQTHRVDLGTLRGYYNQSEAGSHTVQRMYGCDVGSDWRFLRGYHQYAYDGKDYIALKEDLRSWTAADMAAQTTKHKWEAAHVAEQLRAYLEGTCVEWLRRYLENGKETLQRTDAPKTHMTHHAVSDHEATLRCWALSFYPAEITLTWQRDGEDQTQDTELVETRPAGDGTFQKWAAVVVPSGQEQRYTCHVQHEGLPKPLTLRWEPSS

B*27:05, P13750 = test: ProImmune REVEAL MHC-peptide binding assay, B*27:05
A*11:01, P04439 [3] = settings: modification not given
A*24:02, P16209 [4] = settings: modification not given
A*11:01, P04439 [5] = settings: modification not given; remark: listed apart in the source
A*03:01, P04439 [6] = settings: modification not given
A*24:02, P16209 [7] = settings: modification not given; remark: listed apart in the source
B*07:02, P01889 = test: ProImmune REVEAL MHC-peptide binding assay, B*07:02
A*11:01, P04439 [8] = settings: modification not given; remark: listed apart in the source
[9] = molecular target: HLA-A*02:01 (human), P04439
A*11:01, P04439 [10] = settings: modification not given; remark: listed apart in the source
A*03:01, P04439 [11] = settings: modification not given; remark: listed apart in the source
A*11:01, P04439 [12] = settings: modification not given; remark: listed apart in the source
[13] = molecular target: T2, HLA-A*02:01 (human), P04439; settings: chains peptide; modification not given
A*24:02, P16209 [14] = settings: modification not given; remark: listed apart in the source
HLA-B*40:01 [15] = test: HLA binding; serotype 4; settings: chains peptide; modification not given
HLA-A*32:01 [16] = test: HLA binding; serotype 4; settings: chains peptide; modification not given
A*03:01, P04439 [17] = molecular target: T3, A*03:01, P04439; settings: modification not given
T3 chain: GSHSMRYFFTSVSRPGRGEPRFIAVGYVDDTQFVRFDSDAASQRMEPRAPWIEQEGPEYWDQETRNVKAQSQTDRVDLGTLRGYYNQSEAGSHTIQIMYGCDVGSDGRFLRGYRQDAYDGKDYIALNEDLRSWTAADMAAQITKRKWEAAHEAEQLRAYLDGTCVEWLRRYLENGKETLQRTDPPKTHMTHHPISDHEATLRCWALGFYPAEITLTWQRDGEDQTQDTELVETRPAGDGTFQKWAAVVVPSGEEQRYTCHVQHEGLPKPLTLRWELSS

A*11:01, P04439 [18] = settings: modification not given; remark: listed apart in the source
A*24:02, P16209 [19] = settings: modification not given; remark: listed apart in the source
HLA-B*40:01 [20] = test: HLA binding; serotype 1; settings: chains peptide; modification not given
HLA-A*32:01 [21] = test: HLA binding; serotype 1; settings: chains peptide; modification not given
A*11:01, P04439 [22] = settings: modification not given; remark: listed apart in the source
HLA-B*40:01 [23] = test: HLA binding; serotype 3; settings: chains peptide; modification not given
HLA-B*15:01 = test: HLA binding; serotype 3; settings: chains peptide; modification not given
HLA-A*32:01 [24] = test: HLA binding; serotype 3; settings: chains peptide; modification not given
A*11:01, P04439 [25] = settings: modification not given; remark: listed apart in the source
A*03:01, P04439 [26] = molecular target: T3, A*03:01, P04439; settings: modification not given

B1: … (peptide)
peptide: FKPGTSGSP
modifications: not checked
In the case of B1, the REVEAL ® score at 0 h (H-2Kb (mouse), P01901) is reported as 45.7.

B2: … (SEQ ID NO: 341) (peptide)
peptide: KQWFLDLPL
modifications: not checked
B2 gave an REVEAL Score [1] of 86 and an IC50 [2] of 11 nM.

B3: … (peptide)
peptide: LAPTRVVAA
modifications: not checked
B3 gave an REVEAL ® score at 0 h (H-2Kb (mouse), P01901) of 102.

B4: … (peptide)
peptide: FKLTYQNKV
modifications: not checked
Work on B4 yielded an REVEAL ® score at 0 h (B*27:05, P13750) of 53.7.

B5: …, serotype 1 (peptide)
chain: VTFKTAHAK
B5 was tested, and the IC50 (A*11:01, P04439 [3]) was 16 nM.

B6: …, serotype 4 (peptide)
chain: SYTMCSGKF
B6 showed an IC50 (A*24:02, P16209 [4]) of 222 nM.

B7: …, serotype 1 (peptide)
chain: ALKLSWFKK
B7 gave an IC50 (A*11:01, P04439 [5]) of 59 nM and an IC50 (A*03:01, P04439 [6]) of 42 nM.

B8: …, serotype 2 (peptide)
chain: SYSMCTGKF
With B8 the IC50 (A*24:02, P16209 [7]) was 115 nM.

B9: … (peptide)
peptide: SRNSTHEMY
modifications: not checked
B9 showed an REVEAL ® score at 0 h (B*07:02, P01889) of 52.

B10: …, serotype 3 (peptide)
chain: VTFKNAHAK
Work on B10 yielded an IC50 (A*11:01, P04439 [8]) of 17 nM.

B11: … (SEQ ID NO: 344) (peptide)
peptide: TALTGATEI
modifications: not checked
Binder B11 has an REVEAL Score [9] of 0.9.

B12: …, serotype 2 (peptide)
chain: VTFKNPHAK
For B12, the IC50 (A*11:01, P04439 [10]) was 17 nM.

B13: … (peptide)
peptide: ATFTMRLLS
modifications: not checked
B13 was tested, and the REVEAL ® score at 0 h (H-2Kb (mouse), P01901) was 55.6.

B14: …, serotype 4 (peptide)
chain: ALTLHWFRK
B14 was tested, and the IC50 (A*03:01, P04439 [11]) was 34 nM and the IC50 (A*11:01, P04439 [12]) was 47 nM.

B15: … (SEQ ID NO: 343) (peptide)
peptide: RQWFFDLPL
modifications: not checked
With B15 the REVEAL Score [1] was 80.5 and the IC50 [13] was 39 nM and 12 nM.

B16: …, serotype 3 (peptide)
chain: SYAMCLNTF
In the case of B16, the IC50 (A*24:02, P16209 [14]) is reported as 540 nM.

B17: …, serotype 4 (peptide)
chain: KQWFLDLPL
Work on B17 yielded an IC50 (HLA-B*40:01 [15]) of 398 nM and an IC50 (HLA-A*32:01 [16]) of 8 nM.

B18: …, serotype 2 (peptide)
chain: QLKLNWFKK
B18 was tested, and the IC50 (A*03:01, P04439 [17]) was 151 nM and the IC50 (A*11:01, P04439 [18]) was 778 nM.

B19: … (peptide)
peptide: RRGDLPVWL
modifications: not checked
In the case of B19, the REVEAL ® score at 0 h (B*27:05, P13750) is reported as 145.

B20: … (peptide)
peptide: QQRVFKEKV
modifications: not checked
For B20, the REVEAL ® score at 0 h (H-2Kb (mouse), P01901) was 63.4.

B21: … (peptide)
peptide: ARGYISTRV
modifications: not checked
Work on B21 yielded an REVEAL ® score at 0 h (B*27:05, P13750) of 125.

B22: …, serotype 1 (peptide)
chain: SYVMCTGSF
In the case of B22, the IC50 (A*24:02, P16209 [19]) is reported as 104 nM.

B23: … (peptide)
peptide: LSRNSTHEM
modifications: not checked
Work on B23 yielded an REVEAL ® score at 0 h (B*07:02, P01889) of 124 and an REVEAL ® score at 0 h (H-2Kb (mouse), P01901) of 51.1.

B24: … (peptide)
peptide: CHATFTMRL
modifications: not checked
With B24 the REVEAL ® score at 0 h (H-2Kb (mouse), P01901) was 60.3.

B25: …, serotype 1 (peptide)
chain: KQWFLDLPL
For B25, the IC50 (HLA-B*40:01 [20]) was 398 nM and the IC50 (HLA-A*32:01 [21]) was 8 nM.

B26: …, serotype 4 (peptide)
chain: VTFKVPHAK
B26 gave an IC50 (A*11:01, P04439 [22]) of 14 nM.

B27: … (peptide)
peptide: PLSRNSTHE
modifications: not checked
For B27, the REVEAL ® score at 0 h (B*07:02, P01889) was 65.

B28: … (peptide)
peptide: LMCHATFTM
modifications: not checked
Work on B28 yielded an REVEAL ® score at 0 h (B*27:05, P13750) of 98.2 and an REVEAL ® score at 0 h (H-2Kb (mouse), P01901) of 59.

B29: … (peptide)
peptide: HATFTMRLL
modifications: not checked
B29 gave an REVEAL ® score at 0 h (H-2Kb (mouse), P01901) of 69.5.

B30: …, serotype 3 (peptide)
chain: RQWFFDLPL
In the case of B30, the IC50 (HLA-B*40:01 [23]) is reported as 51 nM, the IC50 (HLA-B*15:01) is reported as 80 nM and the IC50 (HLA-A*32:01 [24]) is reported as 7 nM.

B31: … (peptide)
peptide: LMYFHRRDL
modifications: not checked
B31 was tested, and the REVEAL ® score at 0 h (H-2Kb (mouse), P01901) was 54.9.

B32: … (peptide)
peptide: YGLNTFTNM
modifications: not checked
B32 was tested, and the REVEAL ® score at 0 h (H-2Kb (mouse), P01901) was 75.4.

B33: …, serotype 3 (peptide)
chain: ALKINWYRK
With B33 the IC50 (A*11:01, P04439 [25]) was 376 nM and the IC50 (A*03:01, P04439 [26]) was 193 nM.
